Consider 69 sequences from the domain aggregation screens of Martell et al. (2025).

The nature of this data set: soluble fraction after stress (log2 fold change); higher = more stays soluble; pooled small domains, quantitative proteomics. The settings on record: stress: pH 4. In a few lines: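 High-throughput quantitative proteomics was run on pooled custom libraries of small protein domains following pH 4 stress. Fold changes are on a log2 scale; higher values mean more of a domain remained soluble. The fold change in soluble amount is taken as a measure of aggregation propensity.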

In the case of “HMEIGLIRVDSRLIHGQVITKWLNYSKANVIVVVDDELSKDSFMSEIYKASAPNGIIVEILSIDDFMKNT”, the “soluble fraction (log2)” value was -0.142.
Consider “HMEIHIGSLIKEKMEERGLSVSDFAHALHYERTNIYKIFKRSSIDVDLLLRISEVLAYDFLREVYL”, for which the “soluble fraction (log2)” value was -1.9.
Consider “HMEINKLIELIGGYKALSEVLNVSKSAISNYKKRGSLPSYAIPIIVKELKSKGISIDLSEFT”, for which the “soluble fraction (log2)” value was -0.0727.
For the sequence “HMEISAIIGNNLQQLRKEQGLSLDQLALKTGVSKAVLSQLENGKANPTINTIWKIATALHVTYSALLEPP”, the “soluble fraction (log2)” value was -0.347.
Next, “HMEISEILNPPLVTAMAERYPEVDVSYYRDKYILYYESREHKITDHRRNFEKWLLVESQKEEN”: -1.66; “HMEISTENESFSNGLLEHPHYTRPPVWEDLKIPAVLMSGHHGKVAEWRKQQSEALTQERRPDLWEAFG”: -0.0776; “HMEITSSNELKKMISNLINSENKNNPISDSNIVEKLKENDFLVARRTVAKYRKLLGIKNVNQRKE”: 0.25.
Next, “HMEIYELTDQEQRVLEFIGEGMTNREIAKNMFLAEKTVKNYVSSLLRKLGLERRTQAAAMAVRLSV”: -0.988; “HMEKAYVWTDTRTFDVQNYIGKKKSEVKNDQYGFEFLGEGDYVIDQLPRVGEQIEEGQKVKIMLGNQQEI”: 0.117.
Next, “HMEKDKGTILKEARIKKGLTQEQLANNINYTRQYISKWENNISLPKDIQTLKKISNLLSIPLKELLPEDYL”: 0.0442.
In the case of “HMEKEFLFNGGKVVMNYEADRIQIMHDTKPGQDVITLMKKNGFKWSPFNKAWQRQITANAIYTTKHLINQ”, the “soluble fraction (log2)” value was -0.6.
In the case of “HMEKGIVSNKTDKGYGFIRSSTGESIFVHINNVGKEAYEQLAKGSRVLFDYEVTDRGKRATKVMLEPSES”, the “soluble fraction (log2)” value is -0.401.
In the case of “HMEKGLQYRRTDRAIMNAFIKLVNQGSFEKLTVQEILDEALVSRNTFYAHYRDIYDLMDALSN” it was -1.37.
Take “HMEKIDEDIMDVLKKKAEVSGISLGVLKSIYEKAVKQYKLGHEIGQVKEQYAMQKVNTHLLENK”: the “soluble fraction (log2)” value amounted to 0.169.
On to “HMEKIDYLSIGHRLRAYRIASSLKAEDVAESLGISRAAVYRLEKGEIVKIETLDNLARLLNTSLSSLLG”, for which the “soluble fraction (log2)” value is -1.3.
Next, “HMEKIKNLTVTEFNLIANKNPSGSYDRITREALLHIIHKLESSYEAHTDLERKLFYKFRKAKFNAL”: -0.715.
With “HMEKIYLISDAAKQVNVEAHVLRYWEEELDIPAKRNELGHRYYTQEDIETFRKVKELKAQGIQLKGIKNIL”, the “soluble fraction (log2)” value is -1.07.
In the case of “HMEKLLTTRQSQIFELAKRKGYWNIPREISITQLAQLTGSSKSTISVMLHAIESKIVDTFYDEI” it was -0.216; in that of “HMEKLNERLLYLRKNANLTQQQLADKLHISNKTISQWETGRTLPDIVMLVRLAEIYDMKLDELLNQ”, 0.074; in that of “HMEKMLENIDLKAAVEALPEREKKVILLRYYRGMTQDAAAKVMKVSQVQISRIEKRAIEILREKL”, -0.226.
In the case of “HMEKNKERIAFLKKRLEMYYEAEEKILQGQSYTIGSRTLTRTSLANVQSKIKELESEISALETRGN” it was -0.653; in that of “HMEKRIIMLEELKKQVYEANMELPRRGLITYTWGNVSGIDRESGNFVIKPSGVDYDKLKPEDMVVMDL”, 0.0555.
As for “HMEKRRQEIVELVKRESEISFAELKQHFPEVSEVTLRKDLKYLDSTLQIIRIHGGAKSLPAAI”, the “soluble fraction (log2)” value is -0.582.
In the case of “HMEKTTTLFDETTNPGIIYIGKAMPTGSAISEAAAVWAIKTIDTTTDTEIKWADGVTTYTKVWNNRASYSY” it was -1.35; in that of “HMEKVDAISQSILDVLKKNNGYLAVTDKSDPDEIYGLFQISKKTFKKAIGSLYRDRLISIEEEGIRLR”, -0.237.
As to “HMEKVTAPMPGVINSIVKNVGDTVKRGDVVLILEAMKMENEIVAPKEGKIASINVAKGASVNAGDVLFSI”, the “soluble fraction (log2)” value was 0.197.
Next, “HMEKVTPEMIAEYNALAKKYNSNPEVVFKKKEIQRLKYIYSLMSEKQKETAEVFPNIPPPPPT”: -0.599.
In the case of “HMEKYNIIVDNEDNFRLDKIIALNMKDLSRTMIQEMINRGLVSVNGKITKASYKTKLNDQIEIMIED” it was -0.171; in that of “HMELAALKILNSPIGKIAIGTSENGLVKLDILTSGQTRAEFSDLPKAHKLALDAADQLAAYF”, 0.113; in that of “HMELADNFAKLILTARESKGWTQAQLGQRMAETINVIKSAESGKPPADSVIRKFEMILGIELM”, -0.121.
Consider “HMELDFLRLQIITGIHSGRLSNNEILMMYDTYSQKGGNSYVSRIVNDYVDENNIKEEGKRNARK”, for which the “soluble fraction (log2)” value is -0.636.
In the case of “HMELDREALSDGLRRLSQLLAEDDIESRTLFRELAPGLKEQLGDDAVEKLAGHISRYEFEQAGALLATSG” it was -0.61; in that of “HMELIELTVTEEFEMARLDQFLAGHLTQSRTYIQKLIKAGQITINGNLITRVKVPVHYGDFILINIPDPE”, -1.6.
In the case of “HMELKFIGEAVNNPKRPLIAILGGAKVSDKIGVIENLLTKADKILIGGAMMFTFLKAEGKNIGTSLVED” it was -0.0167.
With “HMELLEVSVIIREADSTGWSAARQGMEQAAADLGAELRFLTLSQSNSAEEQRSLLAREVEGGADAVVLV”, the “soluble fraction (log2)” value was at least 0.43.
Next, “HMELNEMEAWSLVSKALRNGTYGAVEEFSRLPPTVQEAVGNPDNLRNWATSDYKAIETVIQSNFIKTY”: -0.429; “HMELNILELKSKERKISLEDHLYIKSFNFDNETNEYFYRLAFNSSKDLKNFKATINNDKTISIINFEI”: -2.14; “HMELPVNSIRVPDVVGLSLREAMQAMTDAGVPWQSVQAKGVGFVSRQSPEAGTVTQLRRVRLELKLF”: -0.00108.
Consider “HMELSPVDLGERLKIARETANFTQDAAAKAVGIARTTLVSIEKGQRTARLDEIQALSRFYGVSANALLR”, for which the “soluble fraction (log2)” value was found to be 0.0374.
Turning to “HMELTDRQKQIIEIVKKQQPISGEKIASILGFARATLRPDFSLLTMSGILQAKPKVGYLINEE”, the “soluble fraction (log2)” value is 0.158.
In the case of “HMELVEVGDLTGLTVEQAENVLKNSNISISIDKYDESDKYEKDQIISQNPQNKKVKKGTAIHVVLSNGP” it was -0.181; in that of “HMEMKMGHIISKLRYESGYSQVELAEKIGITKGAVGMYETDKRKPDYDTLIKLADLFNVSTDYLLS”, -1.31.
Next, “HMEMNDFETLRDMYLTGKIWNVGDIVEANGVRGKVIRKGTNYLSFVDEDNKVHKAWLYDIEE”: -0.429; “HMEMSLGEKLKQARLTKNFSQEYMAEVLQISQKTYSNFENNKTKPDFSQIEEISKVLETSILEFLT”: -0.0931.
For “HMEMTGAHLRKKIRAKGFTFQQIADAIGESKQNLSQILSTNNIKTGTLERIAAAMGESVSYF”, the “soluble fraction (log2)” value turned out to be 0.167.
In the case of “HMENDYTQAQFVQDLDSGVVREVIIIPNREAPTGYARVVFGDVVRELYATDIREVEALAREHGYEPTVED” it was -0.499.
Next, “HMENFDNIFDQRLMPSLFIIRNINQAIENNNNNKFLLNSTISMKDKHWIEIHPHHLKLIISGYQT”: -0.54; “HMENIEVDFGVGDTVSVIGGAWKDTVGVVQAMNPNKQSLTINVELFGRETPVEISFTDVQKM”: -0.962.
In the case of “HMENINIRNMGIRAVEAAIISLSPDQRTFTWGATNKKLVTVPYEENPYSALAAFFKTDDGIEIYDAIEKRL” it was -0.881; in that of “HMENNNIAFSKFLEEVDSGRVVQVEIQGNNISGTLSDGSKFKTYSPNYPDLVSKLSEKNVSIIASPV”, 0.166.
For the sequence “HMENPLVEVVVPVLNEERILKANIETLHHFLRTQPGFNFRITIADNGSTDKTQAIANDLTNSHAVIRV”, the “soluble fraction (log2)” value is -0.441.
Turning to “HMENPMIEQLKQFIEAQGLTQGQLAAKLGVSTATVNQYLQGKYKGDTAALDAKAAQLMARSREK”, the “soluble fraction (log2)” value is 0.175.
On to “HMENRILIPTAENIGERLDRYISSELDAPRSQVQIWIDSGLVAVSGGLKPKNYRLREGDEIEVTIPDPV”, for which the “soluble fraction (log2)” value was -0.0637.
For the sequence “HMENRLREVRDEIATRHGILPTVFINDRVLMNIHSKKPKDVSQLWQVDGISDEFIMKYGPEFIAEYKKKAK”, the “soluble fraction (log2)” value is -0.59.
“HMENRREYQKAIDYLSDQIRAGTLTVGSRLPTERAIAEALGISRNSTREALRTMENMGMIESKQGSGHYLT”: the “soluble fraction (log2)” value was -0.0814.
With “HMENTELIELRKKRNLSQSQLAELLDLTRNQIANYESGRRIPDQETKQIIAGFFEMPAEEIFAG”, the “soluble fraction (log2)” value was -0.0656.
As to “HMENTFNENLRRIRKEKKITQEQLAEFVGVSPQAVSKWEMNSFPDASLLPKIAEKLEVSIDELFGLK”, the “soluble fraction (log2)” value is -0.225.
Consider “HMENTVVMPNLLGKTMTEAKIELKDLSISITLKGSENSSQYAAGQIISQSVDSGTRVAVGSSVEVTIAGS”, for which the “soluble fraction (log2)” value is -0.0377.
For the sequence “HMENVIYGINGPVVTVRNSRSFSMMEMVFVGNERLVGEVIGITDKITTIQVYEETTGLRPGEPVYGTGSPM”, the “soluble fraction (log2)” value was -0.842.
Next, “HMENVRKTEWVTISNDKSQTRTTVYFESGNQKLDKHPQIQGFEYQRTYVEGGVKYYLFVEKGTKLDE”: 0.0865.
As to “HMENYGEAITYIHGMIEDSSEKMLAASKALKVNANTLIKFMKDPYSVAAHIRDRIVENLANLEKAVKAI”, the “soluble fraction (log2)” value was -0.59.
Next, “HMENYYMPVVAGQSEQDAKSMLNAMKLSLSIQVQEQESDSVAKGLAIGTSPAAGSQIRKGSSVILYISKGA”: 0.16; “HMEPALYRLFMAHPELNASAVARRLGIAQSLLAQYISGSKKPSPERERMILTEIHKIGEELATAS”: 0.102; “HMEPAPPPAAPPADPELQKRIDKLVEYIGKNGPEFEAVIRDKQHDNPDYAFVFGGEGHAYYRYLLWLLPRP”: -0.287.
In the case of “HMEPELLTTKQVASVMNIGEERARAILLSRGVQPVSLPWGKERKTLRWSRRAVMTVIDTLHAEAQAKAGV” it was 0.18.
As for “HMEPLPDIPRGTRVSHQTAPADGDMPERRETGWTMTEPIRAQDGLAYVGVSVYGRGVVMLPVNSLSII”, the “soluble fraction (log2)” value is -0.557.
As to “HMEPSAQEIANKLLGHVKSLGLPITGLSISYNSTSDLATVRGQVQSQADREKIILAVGNVDHVAKVDDQLT”, the “soluble fraction (log2)” value was -0.0387.
In the case of “HMEPSQEFSLADMVAYDLTGYPKSAALRAAVGASLGIGYGNAKQFVYRLNHYGISKDDFHRAAQEALDGL” it was 0.057.
Next, “HMEPTAEQLKAIRQFASVNGRSWKSELRYLWETGAYHRAALGGADPGYLQQVRNQFGPGWLRAFKISK”: -0.113.
